The text below walks through data of patent US20220073608A1 (JIANGSU HUAIYU PHARMACEUTICAL, published 2022).

The target of assay [1] is T1, monkey SEMA4D, full length, on CHO-K1 cells (CHO-K1 cSEMA4D) (monkey).
T1 construct: whole, on cells; also called monkey SEMA4D recombinant cells
As to the kind of experiment: FACS, CHO-K1 cSEMA4D cells; Ab 0.0213 nM. As to the method:
After the cells were counted, they were diluted with PBS to 2×10⁶ cells per milliliter. After washing, 100 μL of diluted and purified leading antibodies was added to each well and the plate was incubated for 1 hour on ice. […] Cells were washed 2 times by centrifugation with FACS buffer. The cells were suspended with 200 μL of FACS buffer, FACS (FACS Verse, purchased from BD) was used to detect and analyze the results.
In general terms: A flow cytometer gives signals particle by particle.

Assay [2] deals with T2, human SEMA4D, full length, on CHO-K1 cells (CHO-K1 hSEMA4D) (human, UniProt Q92854 22-862).
T2 construct: whole, on cells; also called human SEMA4D recombinant cells
T2 sequence (looked up): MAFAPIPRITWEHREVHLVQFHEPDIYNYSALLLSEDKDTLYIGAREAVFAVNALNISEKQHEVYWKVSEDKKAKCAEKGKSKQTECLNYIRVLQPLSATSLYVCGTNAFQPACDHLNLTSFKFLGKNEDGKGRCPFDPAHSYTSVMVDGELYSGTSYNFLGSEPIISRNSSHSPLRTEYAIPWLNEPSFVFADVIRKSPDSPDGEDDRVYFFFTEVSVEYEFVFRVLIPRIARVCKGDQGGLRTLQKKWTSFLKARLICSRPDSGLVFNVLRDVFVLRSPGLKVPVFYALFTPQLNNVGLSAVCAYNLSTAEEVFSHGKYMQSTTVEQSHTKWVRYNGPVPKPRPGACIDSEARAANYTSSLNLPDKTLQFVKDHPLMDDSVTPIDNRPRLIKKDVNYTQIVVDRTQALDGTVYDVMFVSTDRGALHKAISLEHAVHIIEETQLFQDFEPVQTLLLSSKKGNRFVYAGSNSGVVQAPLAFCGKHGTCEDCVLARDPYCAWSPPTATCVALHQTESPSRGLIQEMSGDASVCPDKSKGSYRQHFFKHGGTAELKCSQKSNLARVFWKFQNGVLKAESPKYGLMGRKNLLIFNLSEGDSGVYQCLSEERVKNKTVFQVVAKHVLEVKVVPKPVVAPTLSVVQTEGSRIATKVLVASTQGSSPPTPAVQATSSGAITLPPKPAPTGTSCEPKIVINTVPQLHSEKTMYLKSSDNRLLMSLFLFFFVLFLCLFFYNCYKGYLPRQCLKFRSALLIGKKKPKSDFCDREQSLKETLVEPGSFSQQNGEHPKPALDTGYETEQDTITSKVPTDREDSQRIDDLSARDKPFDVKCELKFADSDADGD
Kind of assay: FACS, CHO-K1 hSEMA4D cells; Ab 66.7 nM. As to the method: The medium was aspirated, the cells were washed once with PBS buffer (purchased from Invitrogen), and then treated with cell dissociation fluid (TrypLE™ Express Enzyme, purchased from Life technology), and the cells were collected. After the cells counted, the cells were washed once with PBS phosphate buffer, and diluted to 3×10⁶ cells per milliliter, and added to the 96-well FACS reaction plate as 100 μL per well. 2% (w/w) fetal calf serum was added to PBS phosphate buffer as FACS buffer, with which the cells were washed once by centrifugation at 2000 rpm 4° C. 100 μL of diluted and purified leading antibodies was added to each well and the plate was incubated for 1 hour on ice. […] Cells were washed 2 times by centrifugation with FACS buffer. The cells were suspended with 200 μL of FACS buffer, and FACS (FACS Verse, purchased from BD) was used to detect and analyze the results.

Assay [3] concerns the target T3, hSEMA4D ECD-His (His-tagged human SEMA4D protein extracellular domain, Met22-Arg734) (human, UniProt Q92854 22-734).
T3 construct: Expressed in CHO-S cells, purified on Ni column; also called protein immunogen; immunogen A; not shown: His tag of the pCP vector
T3 sequence: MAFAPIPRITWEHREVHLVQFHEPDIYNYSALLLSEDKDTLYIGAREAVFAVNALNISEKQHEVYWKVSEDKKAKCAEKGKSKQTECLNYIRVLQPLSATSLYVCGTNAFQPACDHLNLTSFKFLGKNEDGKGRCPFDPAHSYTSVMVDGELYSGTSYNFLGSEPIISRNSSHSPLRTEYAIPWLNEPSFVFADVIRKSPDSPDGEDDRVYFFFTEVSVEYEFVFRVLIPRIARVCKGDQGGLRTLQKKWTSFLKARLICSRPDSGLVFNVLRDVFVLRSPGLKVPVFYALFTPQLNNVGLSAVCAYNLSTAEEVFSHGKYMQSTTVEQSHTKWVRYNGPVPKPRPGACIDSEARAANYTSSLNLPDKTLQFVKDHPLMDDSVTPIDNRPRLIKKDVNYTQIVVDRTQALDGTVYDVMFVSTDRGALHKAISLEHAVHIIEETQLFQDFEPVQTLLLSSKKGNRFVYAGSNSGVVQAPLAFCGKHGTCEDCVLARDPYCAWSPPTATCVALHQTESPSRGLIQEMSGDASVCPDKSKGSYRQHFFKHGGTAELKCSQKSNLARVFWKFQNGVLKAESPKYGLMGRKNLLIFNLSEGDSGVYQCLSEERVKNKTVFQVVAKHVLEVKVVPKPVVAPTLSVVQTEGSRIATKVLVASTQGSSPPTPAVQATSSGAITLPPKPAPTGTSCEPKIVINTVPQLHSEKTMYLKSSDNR
As to the kind of experiment: ELISA, coated hSEMA4D ECD-His; Ab 0.00213 nM. As to the method:
(§1) First, hSEMA4D ECD-His was diluted with PBS to a final concentration of 1.0 μg/mL, and then was added to a 96-well ELISA plate, 100 μL per well, sealed with plastic film and incubated overnight at 4° C. On the next day, the plate was washed with a plate washing solution, that is, PBS buffer containing 0.05% (v/v) Tween20, for 4 times, and added with blocking solution, that is, PBS buffer containing 0.05% (v/v) Tween20 and 2% (w/w) BSA, blocked at 37° C. for 1 hour. The blocking solution was poured out and the plate was washed 4 times with the plate washing solution. 100 μL of the purified leading antibodies obtained in Examples 1 and 2 was added to each well. After incubation at 37° C. for 1 hour, the plate was washed 4 times with a plate washing solution. 100 μL of horseradish peroxidase (HRP) labeled secondary antibody (purchased from Sigma) was added at a dilution of 1:10000 to each well, and the plate was incubated at 37° C. for 1 hour, and washed 4 times with a plate washing solution. 100 μL TMB substrate was added to each well, and the plate was incubated at room temperature for 5 minutes, and added with 100 μL stop solution (1.0N HCl) to each well. A microplate reader (SpectraMax M5e, purchased from Molecular Device) was used to read the A450 nm value. […] Wherein, the data in the table was the OD450 nm value.

The target in assay [4] is T3, hSEMA4D ECD-His (His-tagged human …). As to the kind of experiment: ELISA, coated hSEMA4D ECD-His; Ab 0.0107 nM. The method, then:
as §1
Background: In an ELISA, binding on a coated surface is turned into a signal by an enzyme label.

B1: 37F11F9 (antibody, V domains shown)
VH: EVQLQQSGPVLVKPGASVKMSCKASGYTFTDYYMNWVKQSHGKSLEWIGLINPYSGGSTFNQKFKAKATLTVDKSSSSAYMDLNSLTSEDSAVYYCARVGDGYYGVTHGMDYWGQGTSVTVSS
VL: DIVMTPSQKFMSTTVGDRVSITCKASQNVGTAVAWYQQKPGQSPTILIYSASNRYTGVPDRFTGSGSGTDFTLTISNMKSEDLADYFCQQYYIYPFTFAAGTKLELK
notes: Mouse monoclonal antibody purified from hybridoma supernatant on protein A
Take B1: the MFI in assay [1] was found to be 103; in assay [2] it was 4110. In addition, the OD450 nm in assay [3] amounted to 0.0929; in assay [4], 0.131.

B2: 32C8F10 (antibody, V domains shown)
VH: EVQLQQSGAELVRPGASVKLSCTASGFNIKDEYIHWVKQRPEQGLEWIGWIDPANGHTEYASRFQAKATITADTSSNTAYLQLSSLTSEDTAVYYCTTGDYDGFAYWGQGTLVTVST
VL: QIVLTQSPAIMSASPGEKVTISCSARSSVSYMYWYQQKPGSSPKPWIYRTSNLASGVPARFSGSGSGTSYSLTISSMEAEDAATYYCQHYHTYPYTFGGGTKLEIK
notes: as for B1
In the case of B2, the MFI in assay [1] amounted to 291; in assay [2], 8760. Further, the figures for the OD450 nm in assay [3] and in assay [4] were 0.0858 and 0.207, respectively.

B3: 31C11G2 (antibody, V domains shown)
VH: EVQLQQSGAELVRPGASVKLSCTASGFNIKDEYIHWVKQRPEQGLEWIGWIDPANGHTEYASRFQAKATITADTSSNTAYLQLSSLTSEDTAVYYCTTGDYDGFVYWGQGTLVTVST
VL: QIVLTQSPAIMSASPGEKVTIFCSARSSVSYMYWYQQKPGSSPKPWIYRTSNLASGVPARFSGSGSGTSYSLTISSMEAEDAATYYCQHYHTYPYTFGGGTKLEIK
notes: as for B1
Take B3: the MFI in assay [1] amounted to 422; in assay [2], 6750. Besides, the values for the OD450 nm in assay [3] and in assay [4] were 0.141 and 0.337, respectively.

B4: 31G10C5 (antibody, V domains shown)
VH: EVQLQQSGAELVRPGASVKLSCTASGFNIKDDYIHWVKQRPEQGLEWIGWIDPANGHIEYASNFQAKATITADTSSNTAYLQLSSLTSEDTAVYYCTTGDYDGFTYWGQGTLVTVST
VL: QIVLTQSPAIMSASPGEKVTISCSARSSVSYMYWYQQKPGSSPKPWIYRTSNLASGVPARFSGSGSGTSYSLTISSMEAEDAATYYCQHYHTYPYTFGGGTKLEIK
notes: as for B1
In the case of B4, the values for the MFI in assay [1] and in assay [2] were 414 and 7410, respectively. In addition, the OD450 nm is 0.109 in assay [3] and 0.197 in assay [4].

B5: 42B7G2 (antibody, V domains shown)
VH: QVQLQQSGAELARPGASVKLSCKASGYTFTDYGISWVKQRTGQGLEWIGEIYLRNDNSYYNEKFKGKATLTADKSSNTAYMELRSLTSEDSAVYFCARWGDHGNNYEDAMDYWGQGTSVTVSS
VL: DIVLTQSPASLAMSLGKRATISCRASESVSIIGSNLIHWYQQKPGQPPKLLIYHASNLETGVPARFSGSGSRTDFTLTIDPVEEDDVAIYYCLQSRKVPYTFGGGTKLEIK
notes: as for B1
Regarding B5, the results for the MFI in assay [1] and in assay [2] were 216 and 4120, respectively. The OD450 nm is 0.11 in assay [3] and 0.25 in assay [4].

B6: 37C4F7 (antibody, V domains shown)
VH: EFQLQQSGPEVVKPGASVKISCKASGYSFTDYNMNWMKQSKGKSLEWIGVINPNYGTTTYNQNFKGKATLTVDQSSSTAYMQLNSLTSEDSAVYYCARDMYYVYAYYTMDYWGQGTSVTVSS
VL: DVVMTQTPLSLPVSLGDQASISCRSSQSLVHSNGHTYLHWYLQRPGQSPTLLIYKVSNRFSGVPDRFSGSGSGTDFTLKISRVEAEDLGVYFCSQGTHVPWTFGGGTKLEIK
notes: as for B1
Take B6: the MFI in assay [1] came to 79.4; in assay [2], 4740. Moreover, the OD450 nm in assay [3] was found to be 0.0673; in assay [4], 0.0864.

B7: 38H2E3 (antibody, V domains shown)
VH: EFQLQQSGPEVVKPGASVKISCKASGYSFTDYNMNWMKQSKGKSLEWIGVISPDYGTTTYNQNFKDKATLTVDQSSSTAYMQLNSLTSEDSAVYYCAKDMYYVYAYYTMDYWGHGTSVTVSS
VL: DVVMTQTPLSLPVSLGDQASISCRSSQSLVHSNGHTYLHWYLQRPGQSPTLLIYKVSNRFSGVPDRVSGSGSGTDFTLKISRVEAEDLGVYFCSQGTHVPRTFGGGTKLEIK
notes: as for B1
Take B7: the MFI came to 69.1 in assay [1] and 5470 in assay [2]. Further, the values for the OD450 nm in assay [3] and in assay [4] were 0.0738 and 0.0878, respectively.
